Experiment [1] addresses T1, HLA-A*02:01 (recombinant MHC class I molecule) (human).
T1 construct: Recombinant MHC used in the ProImmune REVEAL assay; also called HLA-A2:01
The experiment in a line: REVEAL MHC-peptide binding assay, recombinant MHC, score normalised to positive control = 100. On the procedure: (§1) Specifically, assessment was of a series of overlapping 9-mer peptides derived from the sequence […] (set forth in SEQ ID NO: 7), which contains a portion of the CD28 transmembrane domain and 4-1BB costimulatory domain spanning the junction between the domains (bond joining the two amino acids noted in underline). In addition, a series of overlapping 9-mer peptides of each of a number of different variants of this portion also were assessed, each variant containing a mutation or mutations in this region as described in Example 2.
(§2) The various 9-mer overlapping peptides were synthesized and their purity tested by MALDI-TOF Mass Spectrometry.

For experiment [2], the target named is T2, HLA-A*11:01 (recombinant MHC class I molecule) (human).
T2 construct: Recombinant MHC molecule of the ProImmune REVEAL assay
The experiment can be described thus: REVEAL MHC-peptide binding assay, stabilisation of ternary complex with recombinant MHC. As for the experimental part:
as §1, §2

For experiment [3], the target named is T3, HLA-B*08:01 (recombinant MHC class I molecule) (human).
T3 construct: Recombinant MHC molecule of the ProImmune REVEAL assay
The experiment is described as above. As for the experimental part:
as §1, §2

A further experiment has as its target T4, HLA-A*02:01 (human).
T4 construct: recombinant MHC class I molecule incubated with the synthetic peptide (REVEAL, ProImmune)
The experiment in a line: REVEAL MHC-peptide binding assay, recombinant HLA. As for the experimental part:
as §1, §2

A further experiment deals with T5, HLA-A*03:01 (human).
T5 construct: recombinant MHC class I molecule incubated with the synthetic peptide (REVEAL, ProImmune)
The experiment in a line: REVEAL MHC-peptide binding assay, recombinant HLA. As for the experimental part: as §1, §2

The target of experiment [4] is T6, HLA-A*03:01 (recombinant MHC class I molecule) (human).
T6 construct: Recombinant MHC used in the ProImmune REVEAL assay
The experiment in a line: REVEAL MHC-peptide binding assay, recombinant MHC, score normalised to positive control = 100. As for the experimental part:
as §1, §2

No end group written: not given here.

Consider AFIIFWVRR (Synthetic 9-mer junction variant) [Synthetic peptide AFIIFWVRR (K28R)], for which, in experiment [1], the “In Vitro Score” value was 1.4 % of positive control peptide.

B1: AFIIFWVRR synthetic peptide K28R (SEQ ID NO: 101) (peptide)
peptide: AFIIFWVRR
notes: Synthetic 9-mer from the CD28/4-1BB junction region
With B1, the entries for the “In Vitro Score” value in experiment [2] and in experiment [3] were 1.5 % of positive control peptide and 0.3 % of positive control peptide, respectively.

B2: AFIIFWVKR (peptide)
peptide: AFIIFWVKR
notes: synthetic 9-mer of the CD28-4-1BB junction; mutation: none
B2: the “In Vitro Score” value was 0.5 % of positive control peptide in the experiment with HLA-A*02:01 and 5.7 % of positive control peptide in the experiment with HLA-A*03:01.

B3: AFIIFWVQR (peptide)
peptide: AFIIFWVQR
notes: synthetic 9-mer variant; the entry already carries the change
B3: the “In Vitro Score” value is 0.4 % of positive control peptide in the experiment with HLA-A*02:01 and 0.2 % of positive control peptide with HLA-A*03:01.

B4: AFIIFWVLR (peptide)
peptide: AFIIFWVLR
notes: as for B3
For the molecule B4, the “In Vitro Score” value in the experiment with HLA-A*02:01 is 5.7 % of positive control peptide; with HLA-A*03:01 it was 0.3 % of positive control peptide.
Take WVQRGNKKS (not fully specified, Synthetic 9-mer junction variant) [Synthetic peptide WVQRGNKKS (K28Q/L34S as labelled)]: the “In Vitro Score” value in experiment [1] is 1.2 % of positive control peptide; in experiment [4], 0.7 % of positive control peptide.
The corresponding values for WVQRGNKKA (not fully specified, Synthetic 9-mer junction variant) [Synthetic peptide WVQRGNKKA (K28Q/L34A as labelled)] are 1.9 % of positive control peptide and 1.2 % of positive control peptide.

B5: Synthetic peptide WVKRGRKKA (L34A) (peptide)
peptide: WVKRGRKKA
notes: Synthetic 9-mer variant of the CD28 transmembrane / 4-1BB costimulatory junction region
With B5, the results for the “In Vitro Score” value in experiment [1] and in experiment [4] were 4.5 % of positive control peptide and 0.9 % of positive control peptide, respectively.

B6: WVKRGRKKA synthetic peptide L34A (SEQ ID NO: 90) (peptide)
peptide: WVKRGRKKA
notes: Synthetic 9-mer from the CD28 transmembrane / 4-1BB costimulatory junction region of a CAR
Take B6: the “In Vitro Score” value in experiment [2] and in experiment [3] was 3.1 % of positive control peptide each time.

B7: WVQRGNKKS synthetic peptide K28Q/L34S (SEQ ID NO: 91) (peptide)
peptide: WVQRGNKKS
modifications: not fully specified
notes: as for B1
B7: the results for the “In Vitro Score” value in experiment [2] and in experiment [3] were 5 % of positive control peptide and 0 % of positive control peptide, respectively.

B8: WVQRGNKKA synthetic peptide K28Q/L34A (SEQ ID NO: 92) (peptide)
peptide: WVQRGNKKA
modifications: not fully specified
notes: as for B1
In the case of B8, the “In Vitro Score” value in experiment [2] is 0.8 % of positive control peptide; in experiment [3], 0.7 % of positive control peptide.

B9: VAFIIFWVH (peptide)
peptide: VAFIIFWVH
notes: as for B3
For B9, the “In Vitro Score” value was 3.1 % of positive control peptide with HLA-A*02:01 and 0.3 % of positive control peptide in the experiment with HLA-A*03:01.

B10: VAFIIFWVQ (peptide)
peptide: VAFIIFWVQ
notes: as for B3
Turning to B10, the “In Vitro Score” value is 5.3 % of positive control peptide with HLA-A*02:01 and 0.2 % of positive control peptide with HLA-A*03:01.

B11: VAFIIFWVL (peptide)
peptide: VAFIIFWVL
notes: as for B3
Regarding B11, the “In Vitro Score” value in the experiment with HLA-A*02:01 was 0.2 % of positive control peptide; with HLA-A*03:01 it was 0 % of positive control peptide.

(Values after US20200297760A1 (JUNO THERAPEUTICS, published 2020).)
